Assay results as given in paper PMC9482650, “Quantitative fragmentomics allow affinity mapping of interactomes” (Nature Communications, 2022).

Key:
Test in all cases: holdup assay
Parameters in all cases: key: below the threshold = too weak to quantify, mostly under pKd 3.1 to 4
Settings in all cases: plain residues with an end cap or a label only (N-terminal biotin on a linker: ado-ado)
LRRC7, Q96NW7 = target: T1, LRRC7, Q96NW7
T1 sequence (Q96NW7 1440-1537, limits assumed, looked up): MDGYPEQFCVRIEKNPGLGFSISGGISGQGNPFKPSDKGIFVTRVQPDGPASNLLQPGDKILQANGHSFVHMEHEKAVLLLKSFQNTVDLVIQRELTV

DLG2_2, Q15700 = target: DLG2_2, Q15700
Chain of DLG2_2, Q15700 (Q15700 189-283): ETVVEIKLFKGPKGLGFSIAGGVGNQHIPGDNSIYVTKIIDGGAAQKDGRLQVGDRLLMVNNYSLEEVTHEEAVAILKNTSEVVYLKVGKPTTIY

DLG3_3, Q92796 = target: T2, DLG3_3, Q92796
T2 sequence (Q92796 374-475, limits assumed, looked up): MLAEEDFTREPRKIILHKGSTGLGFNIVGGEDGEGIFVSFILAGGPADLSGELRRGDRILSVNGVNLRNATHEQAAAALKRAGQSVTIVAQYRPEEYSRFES

GORASP2, Q9H8Y8 = target: GORASP2, Q9H8Y8
PDZRN3_1, Q9UPQ7 = target: T3, PDZRN3_1, Q9UPQ7
T3 sequence (Q9UPQ7 244-349, limits assumed, looked up): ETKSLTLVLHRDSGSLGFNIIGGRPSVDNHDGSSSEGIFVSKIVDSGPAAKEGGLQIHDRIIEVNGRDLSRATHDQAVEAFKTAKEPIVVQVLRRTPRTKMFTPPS

NHERF4_1, Q86UT5-2 = target: NHERF4_1, Q86UT5-2
Chain of NHERF4_1, Q86UT5-2 (Q86UT5 other isoform, or with tags, fused parts or gaps): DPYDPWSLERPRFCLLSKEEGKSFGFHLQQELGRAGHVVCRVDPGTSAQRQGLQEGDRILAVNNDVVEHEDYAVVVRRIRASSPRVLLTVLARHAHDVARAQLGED

NHERF4_4, Q86UT5 = target: NHERF4_4, Q86UT5
Chain of NHERF4_4, Q86UT5 (Q86UT5 464-550): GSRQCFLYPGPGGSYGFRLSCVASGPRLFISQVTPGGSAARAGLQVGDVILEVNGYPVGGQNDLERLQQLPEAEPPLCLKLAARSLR

Inadl_1, Q8NI35 = target: Inadl_1, Q8NI35
Chain of Inadl_1, Q8NI35 (Q8NI35 113-229): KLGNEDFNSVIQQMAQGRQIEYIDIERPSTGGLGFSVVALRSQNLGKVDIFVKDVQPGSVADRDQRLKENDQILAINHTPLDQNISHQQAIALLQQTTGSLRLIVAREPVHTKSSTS

PDLIM1, O00151 = target: PDLIM1, O00151
Chain of PDLIM1, O00151 (O00151 1-87): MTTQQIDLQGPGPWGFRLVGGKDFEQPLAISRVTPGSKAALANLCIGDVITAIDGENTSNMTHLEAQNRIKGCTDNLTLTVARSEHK

Inadl_4, Q8NI35 = target: Inadl_4, Q8NI35
Chain of Inadl_4, Q8NI35 (Q8NI35 547-651): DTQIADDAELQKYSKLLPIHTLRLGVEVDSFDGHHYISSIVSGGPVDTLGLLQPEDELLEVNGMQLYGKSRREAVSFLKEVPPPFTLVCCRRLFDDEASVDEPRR

RHPN1, Q8TCX5 = target: T4, RHPN1, Q8TCX5
T4 sequence (Q8TCX5 508-602, limits assumed, looked up): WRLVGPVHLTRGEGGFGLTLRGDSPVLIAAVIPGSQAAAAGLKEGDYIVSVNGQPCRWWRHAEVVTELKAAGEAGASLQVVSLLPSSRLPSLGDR

FRMPD2_1, Q68DX3 = target: FRMPD2_1, Q68DX3
Chain of FRMPD2_1, Q68DX3 (Q68DX3 770-861): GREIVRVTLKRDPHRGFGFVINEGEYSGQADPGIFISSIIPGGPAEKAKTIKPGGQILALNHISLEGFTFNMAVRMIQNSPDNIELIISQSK

APBA3_1, O96018 = target: T5, APBA3_1, O96018
T5 sequence (O96018 389-490, limits assumed, looked up): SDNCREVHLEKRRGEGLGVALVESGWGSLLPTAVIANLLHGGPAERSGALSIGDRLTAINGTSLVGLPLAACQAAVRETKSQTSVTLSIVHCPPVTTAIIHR

GRIP2_6, Q9C0E4 = target: GRIP2_6, Q9C0E4
Chain of GRIP2_6, Q9C0E4 (Q9C0E4 648-740): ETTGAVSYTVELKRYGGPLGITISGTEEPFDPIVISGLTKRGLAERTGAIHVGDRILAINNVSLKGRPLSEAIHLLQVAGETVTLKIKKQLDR

Inadl_3, Q8NI35 = target: Inadl_3, Q8NI35
Chain of Inadl_3, Q8NI35 (Q8NI35 359-469): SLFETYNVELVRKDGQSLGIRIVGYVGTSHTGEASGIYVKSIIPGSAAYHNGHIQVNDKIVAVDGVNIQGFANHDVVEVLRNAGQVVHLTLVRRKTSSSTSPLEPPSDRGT

IL16_1, Q14005 = target: IL16_1, Q14005
Chain of IL16_1, Q14005 (Q14005 210-306): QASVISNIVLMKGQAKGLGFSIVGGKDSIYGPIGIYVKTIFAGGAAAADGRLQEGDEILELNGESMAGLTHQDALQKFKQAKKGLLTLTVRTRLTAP

SNTB1, Q13884 = target: T6, SNTB1, Q13884
T6 sequence (Q13884 107-205, limits assumed, looked up): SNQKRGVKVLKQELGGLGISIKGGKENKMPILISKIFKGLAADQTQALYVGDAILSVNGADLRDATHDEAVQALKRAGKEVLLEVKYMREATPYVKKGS

MPDZ_5, O75970 = target: T7, MPDZ_5, O75970
T7 sequence (O75970 695-796, limits assumed, looked up): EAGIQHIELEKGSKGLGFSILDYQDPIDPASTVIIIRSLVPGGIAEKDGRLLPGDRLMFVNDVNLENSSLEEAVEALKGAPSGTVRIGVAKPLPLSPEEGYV

GORASP1, Q9BQQ3 = target: GORASP1, Q9BQQ3
Chain of GORASP1, Q9BQQ3 (Q9BQQ3 1-208): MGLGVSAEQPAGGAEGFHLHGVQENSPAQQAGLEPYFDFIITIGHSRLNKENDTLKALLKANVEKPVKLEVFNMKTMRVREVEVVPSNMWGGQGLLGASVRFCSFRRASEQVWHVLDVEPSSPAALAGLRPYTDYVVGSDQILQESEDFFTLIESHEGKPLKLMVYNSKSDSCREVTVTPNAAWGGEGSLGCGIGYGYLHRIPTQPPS

SCRIB_1, Q14160 = target: SCRIB_1, Q14160
Chain of SCRIB_1, Q14160 (Q14160 718-814): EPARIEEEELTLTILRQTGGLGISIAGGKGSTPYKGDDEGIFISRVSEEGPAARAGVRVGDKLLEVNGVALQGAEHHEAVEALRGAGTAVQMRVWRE

DVL3, Q92997 = target: T8, DVL3, Q92997
T8 sequence (Q92997 244-331, limits assumed, looked up): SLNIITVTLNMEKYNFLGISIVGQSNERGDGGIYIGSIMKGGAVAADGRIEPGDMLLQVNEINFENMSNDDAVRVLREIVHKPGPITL

TJP1_2, Q07157 = target: TJP1_2, Q07157
Chain of TJP1_2, Q07157 (Q07157 181-274): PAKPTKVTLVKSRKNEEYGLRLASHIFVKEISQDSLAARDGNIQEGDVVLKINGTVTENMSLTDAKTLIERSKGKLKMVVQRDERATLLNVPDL

DFNB31_1, Q9P202 = target: T9, DFNB31_1, Q9P202
T9 sequence (Q9P202 135-233, limits assumed, looked up): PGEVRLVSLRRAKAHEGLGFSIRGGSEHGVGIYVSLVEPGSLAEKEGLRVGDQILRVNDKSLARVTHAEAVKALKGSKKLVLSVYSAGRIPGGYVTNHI

SCRIB_3, Q14160 = target: SCRIB_3, Q14160
Chain of SCRIB_3, Q14160 (Q14160 999-1103): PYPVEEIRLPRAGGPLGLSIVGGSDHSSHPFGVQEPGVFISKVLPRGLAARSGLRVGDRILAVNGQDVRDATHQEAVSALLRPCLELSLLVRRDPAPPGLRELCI

MPDZ_10, O75970 = target: T10, MPDZ_10, O75970
T10 sequence (O75970 1624-1722, limits assumed, looked up): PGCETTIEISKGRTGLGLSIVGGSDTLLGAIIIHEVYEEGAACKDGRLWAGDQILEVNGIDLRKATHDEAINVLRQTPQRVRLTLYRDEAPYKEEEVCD

MPP7, Q5T2T1 = target: T11, MPP7, Q5T2T1
T11 sequence (Q5T2T1 134-230, limits assumed, looked up): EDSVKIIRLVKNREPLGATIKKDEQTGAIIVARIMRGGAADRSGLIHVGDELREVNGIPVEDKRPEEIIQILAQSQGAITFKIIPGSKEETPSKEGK

Row | Binder | pKd (LRRC7, Q96NW7) | pKd (DLG2_2, Q15700) | pKd (DLG3_3, Q92796) | pKd (GORASP2, Q9H8Y8) | pKd (PDZRN3_1, Q9UPQ7) | pKd (NHERF4_1, Q86UT5-2) | pKd (NHERF4_4, Q86UT5) | pKd (Inadl_1, Q8NI35) | pKd (PDLIM1, O00151) | pKd (Inadl_4, Q8NI35) | pKd (RHPN1, Q8TCX5) | pKd (FRMPD2_1, Q68DX3) | pKd (APBA3_1, O96018) | pKd (GRIP2_6, Q9C0E4) | pKd (Inadl_3, Q8NI35) | pKd (IL16_1, Q14005) | pKd (SNTB1, Q13884) | pKd (MPDZ_5, O75970) | pKd (GORASP1, Q9BQQ3) | pKd (SCRIB_1, Q14160) | further results
1 | DTTVPESEDL [MYOZ2, Q9NPC6] | below the threshold | below the threshold | below the threshold | below the threshold | below the threshold | 3.92 | below the threshold | below the threshold | 5.1 | below the threshold | below the threshold | below the threshold | below the threshold | below the threshold | below the threshold | below the threshold | below the threshold | below the threshold | below the threshold | below the threshold | pKd (DVL3, Q92997): below the threshold; pKd (TJP1_2, Q07157): below the threshold; pKd (DFNB31_1, Q9P202): below the threshold; pKd (SCRIB_3, Q14160): below the threshold; pKd (MPDZ_10, O75970): below the threshold; pKd (MPP7, Q5T2T1): below the threshold
2 | PDGQCTVTEV [RNF146, Q9NTX7] | 3.89 | 4.9 | below the threshold | 4.17 | 3.5 | 3.89 | 4.02 | below the threshold | below the threshold | below the threshold | 4.68 | below the threshold | below the threshold | below the threshold | 4.11 | 4.17 | 4.37 | below the threshold | below the threshold | 4.68 | pKd (DVL3, Q92997): below the threshold; pKd (TJP1_2, Q07157): below the threshold; pKd (DFNB31_1, Q9P202): 3.9; pKd (SCRIB_3, Q14160): 4.72; pKd (MPDZ_10, O75970): below the threshold; pKd (MPP7, Q5T2T1): below the threshold
3 | EVEEFPETSV [TRPV3, Q8NET8] | 4.08 | 4.2 | 4.54 | 3.51 | 4.91 | below the threshold | below the threshold | below the threshold | 3.6 | 3.49 | 4.68 | 3.59 | below the threshold | below the threshold | 3.72 | 4.17 | 5.23 | 3.56 | 3.54 | 4.54 | pKd (DVL3, Q92997): 3.59; pKd (TJP1_2, Q07157): 3.52; pKd (DFNB31_1, Q9P202): 4.86; pKd (SCRIB_3, Q14160): 5.02; pKd (MPDZ_10, O75970): 3.56; pKd (MPP7, Q5T2T1): 3.57
4 | SAKVRTVTSV [RASL11B, Q9BPW5] | below the threshold | 4.79 | 4.89 | 4.56 | 3.71 | 3.77 | 3.91 | below the threshold | below the threshold | below the threshold | 3.83 | below the threshold | below the threshold | 3.63 | below the threshold | below the threshold | 3.64 | below the threshold | 3.76 | 4.17 | pKd (DVL3, Q92997): below the threshold; pKd (TJP1_2, Q07157): below the threshold; pKd (DFNB31_1, Q9P202): 3.77; pKd (SCRIB_3, Q14160): 4.33; pKd (MPDZ_10, O75970): below the threshold; pKd (MPP7, Q5T2T1): below the threshold
5 | PAPSSGKDYV [CLDN1, O95832] | below the threshold | below the threshold | below the threshold | 3.67 | below the threshold | 3.62 | below the threshold | below the threshold | below the threshold | below the threshold | below the threshold | below the threshold | below the threshold | below the threshold | below the threshold | below the threshold | below the threshold | below the threshold | below the threshold | below the threshold | pKd (DVL3, Q92997): below the threshold; pKd (TJP1_2, Q07157): below the threshold; pKd (DFNB31_1, Q9P202): below the threshold; pKd (SCRIB_3, Q14160): below the threshold; pKd (MPDZ_10, O75970): below the threshold; pKd (MPP7, Q5T2T1): below the threshold
6 | NHSSSPETTA [TRMT13, Q9NUP7] | below the threshold | below the threshold | below the threshold | below the threshold | below the threshold | below the threshold | below the threshold | below the threshold | below the threshold | below the threshold | below the threshold | below the threshold | below the threshold | below the threshold | below the threshold | below the threshold | below the threshold | below the threshold | below the threshold | below the threshold | pKd (DVL3, Q92997): below the threshold; pKd (TJP1_2, Q07157): below the threshold; pKd (DFNB31_1, Q9P202): below the threshold; pKd (SCRIB_3, Q14160): below the threshold; pKd (MPDZ_10, O75970): below the threshold; pKd (MPP7, Q5T2T1): below the threshold
